97 variants from the supplement of paper PMC10567573 can be followed below.

The chains are these.
B1: KCNAB2 (parent)
chain: SSIIHEIDSILGNKPYSKKDYRS
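Note: lentivirally expressed fusions sorted by FACS into six bins by GFP to DsRed ratio, PSI derived from sequencing read proportions per bin multiplied by bin number.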

The variants in this data set derive from B1. Kind of data set: protein stability index of a GFP-peptide fusion (GPS, HEK-293T) (PSI 1-6); higher = more stable. Conditions: c terminus: native.
In the case of SSIIHEIDSILGCKPYSKKDYRS [N13C], the protein stability index amounted to 2.25. To SSIIHEIDSILGLKPYSKKDYRS [N13L] belongs 2.47; to SSIIHEIDSILGPKPYSKKDYRS [N13P], 2.54; to SSIIHEIDSILGSKPYSKKDYRS [N13S], 2.59.

As to SSIIHEIDSILGTKPYSKKDYRS [N13T], the protein stability index came out at 2.97. Regarding SSIIHEIDSILGAKPYSKKDYRS [N13A], the protein stability index came to 2.14.

Take SSIIHEIDSILGFKPYSKKDYRS [N13F]: the protein stability index worked out at 2.68. For SSIIHEIDSILGRKPYSKKDYRS [N13R], the protein stability index is 3.1. For SSIIHEIDSILGWKPYSKKDYRS [N13W], the protein stability index was determined as 2.38.

Regarding SSIIHEIDSILGIKPYSKKDYRS [N13I], the protein stability index came out at 2.51. For SSIIHEIDSILGHKPYSKKDYRS [N13H], the protein stability index was 3. As for SSIIHEIDSILGGKPYSKKDYRS [N13G], the protein stability index was 2.61.

Turning to SSIIHEIDSILGEKPYSKKDYRS [N13E], the protein stability index stood at 2.82.

Turning to SSIIHEIDSILGVKPYSKKDYRS [N13V], the protein stability index was found to be 2.59. On to SSIIHEIDSILGQKPYSKKDYRS [N13Q], for which the protein stability index is 2.63.

Consider SSIIHEIDSILGYKPYSKKDYRS [N13Y], for which the protein stability index was determined as 1.79. As for SSIIHEIDSILGMKPYSKKDYRS [N13M], the protein stability index was 2.56. As for SSIIHEIDSILGNKPYSKKEYRS [D20E], the protein stability index came out at 2.89. To SSIIHEIDSILGNKPYSKKMYRS [D20M] belongs 2.96; to SSIIHEIDSILGNKPYSKKGYRS [D20G], 3.07. Regarding SSIIHEIDSILGNKPYSKKKYRS [D20K], the protein stability index was found to be 2.47.

In the case of SSIIHEIDSILGNKPYSKKIYRS [D20I], the protein stability index came out at 2.41.

Take SSIIHEIDSILGNKPYSKKPYRS [D20P]: the protein stability index was 4.21. SSIIHEIDSILGNKPYSKKHYRS [D20H]: the protein stability index amounted to 2.51. Consider SSIIHEIDSILGNKPYSKKAYRS [D20A], for which the protein stability index is 2.14. In the case of SSIIHEIDSILGNKPYSKKCYRS [D20C], the protein stability index was found to be 2.01. On to SSIIHEIDSILGNKPYSKKLYRS [D20L], for which the protein stability index came out at 2.63. Regarding SSIIHEIDSILGNKPYSKKFYRS [D20F], the protein stability index came out at 2.37.

SSIIHEIDSILGNKPYSKKNYRS [D20N]: the protein stability index is 3.2. In the case of SSIIHEIDSLLGNKPYSKKDYRS [I10L] it was 3.12; in that of SSIIHEIDSHLGNKPYSKKDYRS [I10H], 4.15. For the variant SSIIHEIDSNLGNKPYSKKDYRS [I10N], the protein stability index came out at 4.38. Consider SSIIHEIDSYLGNKPYSKKDYRS [I10Y], for which the protein stability index was 3. Consider SSIIHEIDSRLGNKPYSKKDYRS [I10R], for which the protein stability index was determined as 4.3. To SSIIHEIDSWLGNKPYSKKDYRS [I10W] belongs 1.96; to SSIIHEIDSTLGNKPYSKKDYRS [I10T], 3.89; to SSIIHEIDSVLGNKPYSKKDYRS [I10V], 3.67.

With SSIIHEIDSSLGNKPYSKKDYRS [I10S], the protein stability index turned out to be 3.68. SSIIHEIDSGLGNKPYSKKDYRS [I10G]: the protein stability index stood at 4.32. SSIIHEIDSPLGNKPYSKKDYRS [I10P]: the protein stability index is 4.38. Regarding SSIIHEIDSKLGNKPYSKKDYRS [I10K], the protein stability index worked out at 4.87. As for SSIIHEIDSQLGNKPYSKKDYRS [I10Q], the protein stability index is 4.47. As for SSIIHEIDSMLGNKPYSKKDYRS [I10M], the protein stability index amounted to 3.32. Take SSIIHEIDSILGNKPYAKKDYRS [S17A]: the protein stability index stood at 3.74.

Turning to SSIIHEIDSILGNKPYYKKDYRS [S17Y], the protein stability index was 2.8.

For SSIIHEIDSILGNKPYIKKDYRS [S17I], the protein stability index amounted to 3.54. In the case of SSIIHEIDSILGNKPYHKKDYRS [S17H] it was 2.95; in that of SSIIHEIDSILGNKPYEKKDYRS [S17E], 3.77. In the case of SSIIHEIDSILGNKPYWKKDYRS [S17W] it was 2.29; in that of SSIIHEIDSILGNKPYLKKDYRS [S17L], 2.93. For SSIIHEIDSILGNKPYNKKDYRS [S17N], the protein stability index was found to be 2.99. With SSIIHEIDSILGNKPYMKKDYRS [S17M], the protein stability index came out at 3.2. In the case of SSIIHEIDSILGNKPYDKKDYRS [S17D] it was 3.22; in that of SSIIHEIDSILGNKPYCKKDYRS [S17C], 3.79; in that of SSIIHEIDSILGNKPYTKKDYRS [S17T], 2.7.

SSIIHEIDSILGNKPYRKKDYRS [S17R]: the protein stability index worked out at 3.23. In the case of SSIIHEIDSILGNKPYFKKDYRS [S17F], the protein stability index was 3.2. To SSIIHEIDSILGNKPYPKKDYRS [S17P] belongs 3.31; to SSIIHEIDSILGNKPYVKKDYRS [S17V], 3.45. For SSIIHEIDSILGNKPYQKKDYRS [S17Q], the protein stability index is 3.76. To SSIIHEIDSILGNKPYKKKDYRS [S17K] belongs 3.43. In the case of SSIIHEIDSILGNKPYGKKDYRS [S17G] it was 3.15; in that of SSIIHEIDSIIGNKPYSKKDYRS [L11I], 3.42; in that of SSIIHEIDSIQGNKPYSKKDYRS [L11Q], 4.91. Regarding SSIIHEIDSICGNKPYSKKDYRS [L11C], the protein stability index was 3.86.

On to SSIIHEIDSIYGNKPYSKKDYRS [L11Y], for which the protein stability index stood at 3.4. With SSIIHEIDSISGNKPYSKKDYRS [L11S], the protein stability index was determined as 4.36. Consider SSIIHEIDSIAGNKPYSKKDYRS [L11A], for which the protein stability index was found to be 3.9.

As for SSIIHEIDSIEGNKPYSKKDYRS [L11E], the protein stability index amounted to 4.69.

As for SSIIHEIDSIRGNKPYSKKDYRS [L11R], the protein stability index is 4.13. To SSIIHEIDSIDGNKPYSKKDYRS [L11D] belongs 4.72. SSIIHEIDSINGNKPYSKKDYRS [L11N]: the protein stability index amounted to 4. Regarding SSIIHEIDSIFGNKPYSKKDYRS [L11F], the protein stability index was determined as 3.07. Turning to SSIIHEIDSIPGNKPYSKKDYRS [L11P], the protein stability index worked out at 4.19. Take SSIIHEIDSIMGNKPYSKKDYRS [L11M]: the protein stability index turned out to be 4.04. To SSIIHEIDSIHGNKPYSKKDYRS [L11H] belongs 4.46; to SSIIHEIDSIGGNKPYSKKDYRS [L11G], 4.19; to SSIIHEIDSIKGNKPYSKKDYRS [L11K], 4.03.

Consider SSIIHEIDSIWGNKPYSKKDYRS [L11W], for which the protein stability index amounted to 2.63.

Take SSIIHEIDSIVGNKPYSKKDYRS [L11V]: the protein stability index was 3.69. To SSIIHEIDSITGNKPYSKKDYRS [L11T] belongs 4.27. Take SSIIHEIDSILANKPYSKKDYRS [G12A]: the protein stability index turned out to be 2.61. As to SSIIHEIDSILNNKPYSKKDYRS [G12N], the protein stability index was 3.18. In the case of SSIIHEIDSILINKPYSKKDYRS [G12I], the protein stability index was 2.62. To SSIIHEIDSILSNKPYSKKDYRS [G12S] belongs 3.51; to SSIIHEIDSILLNKPYSKKDYRS [G12L], 2.8. To SSIIHEIDSILQNKPYSKKDYRS [G12Q] belongs 3.16; to SSIIHEIDSILYNKPYSKKDYRS [G12Y], 2.97; to SSIIHEIDSILCNKPYSKKDYRS [G12C], 2.82. For the variant SSIIHEIDSILENKPYSKKDYRS [G12E], the protein stability index is 3.69. As for SSIIHEIDSILMNKPYSKKDYRS [G12M], the protein stability index was determined as 3.77. Turning to SSIIHEIDSILTNKPYSKKDYRS [G12T], the protein stability index came out at 3.24.

SSIIHEIDSILWNKPYSKKDYRS [G12W]: the protein stability index was determined as 2.6. In the case of SSIIHEIDSILPNKPYSKKDYRS [G12P], the protein stability index is 3.86. Regarding SSIIHEIDSILKNKPYSKKDYRS [G12K], the protein stability index amounted to 3.38.

Turning to SSIIHEIDSILFNKPYSKKDYRS [G12F], the protein stability index was determined as 4.21. With SSIIHEIDSILRNKPYSKKDYRS [G12R], the protein stability index is 2.73.
